The values below come from patent US20220073619A1 (IMCHECK THERAPEUTICS, published 2022).

Experiment [1] has as its target Human BTN3A, membrane displayed on cells (human PBMCs, Daudi cells, SKOV-3 cells) (human), O00481. The experiment is described as follows: cell-based or functional assay.
In experiment [2] the target is T1, Human BTN3A1 His-tagged antigen (Sino Biological Cat. No. 15973-H08H) (human, UniProt O00481 30-254).
T1 construct: Bought recombinant protein; also called recombinant human BTN3A1-His; not shown: His tag
Put plainly: SPR Biacore T200, single cycle kinetics, BTN3A1-His captured on anti-His CM5 chip, Fab as analyte, 1:1 model, 25 C. The procedure:
All single cycle kinetic experiments were run at 25° C. with HBS-P+ running buffer (pH 7.4) containing 0.1% BSA (GE Healthcare, Little Chalfont, UK).
Human BTN3A1 His-tagged antigen (Sino Biological, Beijing, China) was diluted in running buffer to a final concentration of 0.4 μg/mL. At the start of each cycle, BTN3A1-His was captured onto Fc2 of CM5 sensor chip pre-coupled using a His capture kit (GE Healthcare, Little Chalfont, UK) with standard amine chemistry at a flow rate of 10 μL/min. An immobilization level (RL) of ˜17 RU or 8 RU, the different theoretical values to obtain a RMax of ˜25 RU was used for the analytes Fab and F(ab′)₂ respectively. The surface was then allowed to stabilize. Single cycle kinetics data was obtained with the purified samples (Fab and F(ab′)₂)) at a flow rate of 40 μL/min to minimize any potential mass transfer effects. The signal from the reference channel Fc1 (no antigen capture) was subtracted from that of Fc2 to correct for differences in non-specific binding to the reference surface. […] The signal for BTN3A1-His blank runs (no analyte) were subtracted to correct for differences in surface stability. The association phase for the five injections of increasing concentrations was monitored for 240 seconds each time and a single dissociation phase was measured for 2000 seconds following the last injection of analyte. Regeneration of the chip surface was conducted using two injections of 10 mM glycine-HCL pH 1.5 followed by a stabilization period of 240 seconds.
Raw sensorgrams were fitted with a 1:1 model for Fab samples and with a bivalent analyte model for F(ab′)₂ samples in agreement with the different valences of the analytes. Kinetic constants obtained are detailed in Table 1 and Table 2.
(In SPR one partner is held on a chip, and binding of the other changes the refractive index at the surface.)

The target in experiment [3] is T1, Human BTN3A1 His-tagged antigen (Sino …). The experiment is described as follows: SPR Biacore T200, single cycle kinetics, BTN3A1-His captured on anti-His CM5 chip, IgG as analyte, bivalent analyte model (ka 1), 25 C. The procedure:
(§1) Human BTN3A1 His-tagged antigen (Sino Biological, Beijing, China) was diluted in running buffer to a final concentration of 0.4 μg/mL. At the start of each cycle, human BTN3A1-His was captured onto Fc2 of CM5 sensor chip pre-coupled using a His capture kit (GE Healthcare, Little Chalfont, UK) with standard amine chemistry at a flow rate of 10 μL/min. An immobilization level (RL) of ˜34 RU, 16 RU or 11 RU, the different theoretical values to obtain a RMax of ˜50 RU was used for the analytes Fab, F(ab′)₂ and IgG respectively. The surface was then allowed to stabilize. Single cycle kinetic data was obtained with the purified samples (Fab, F(ab′)₂ and IgG) at a flow rate of 40 μL/min to minimize any potential mass transfer effects. The signal from the reference channel Fc1 (no antigen capture) was subtracted from that of Fc2 to correct for differences in non-specific binding to the reference surface. The signal for human BTN3A1-His blank runs (no analyte) were subtracted to correct for differences in surface stability. The association phase for the five injections of increasing concentrations was monitored for 240 seconds each time and a single dissociation phase was measured for 1400 seconds following the last injection of analyte. Regeneration of the chip surface was conducted using two injections of 10 mM glycine-HCL pH 1.5 followed by a stabilization period of 240 seconds.

Experiment [4] shares this target. Put plainly: SPR Biacore T200, single cycle kinetics, BTN3A1-His captured on anti-His CM5 chip, IgG as analyte, bivalent analyte model (kd 1), 25 C. As to the method:
as §1

For experiment [5] the target is unchanged. Put plainly: SPR Biacore T200, single cycle kinetics, BTN3A1-His captured on anti-His CM5 chip, IgG as analyte, bivalent analyte model (ka 2), 25 C. As to the method:
as §1

Experiment [6] shares this target. Put plainly: SPR Biacore T200, single cycle kinetics, BTN3A1-His captured on anti-His CM5 chip, IgG as analyte, bivalent analyte model (kd 2), 25 C. As to the method:
as §1

Experiment [7] has the same target. The experiment is described as follows: BLI OctetRed96, antibody loaded on FAB2G (anti-human CH1) sensors, human BTN3A1 as analyte 1.87-60 nM, 1:1 model, 30 C. The procedure:
(§2) All runs (including loading, equilibration, association/dipping of sensors into analyte, dissociation and regeneration) were performed in black 96-well plates (Greiner) at 30° C. with shaking 1000 rpm using an OctetRed96 (ForteBio). […] The association of antibody or fragments with various concentrations of human BTN3A1 (60, 30, 15, 7.5, 3.75 and 1.87 nM) was monitored for 300 s, and the dissociation was followed for typically 500 s in kinetic buffer. Fitting of the data and constant measurements were performed with the Octet Red system software (version 7.1) using the 1:1 model. A control with an irrelevant antibody was used in order to assess the absence of non-specific binding of the target protein.

For experiment [8] the target is unchanged. The experiment is described as follows: BLI OctetRed96, Fab loaded on FAB2G (anti-human CH1) sensors, human BTN3A1 as analyte 1.87-60 nM, 1:1 model, 30 C. As to the method: as §2
Experiment [9] shares this target. The experiment is described as follows: SPR Biacore T200, single cycle kinetics, BTN3A1-His captured on anti-His CM5 chip, Fab as analyte, 1:1 model, 25 C. The procedure: as §1
The source holds these as a separate data set.

The target is the same in experiment [10]. Put plainly: competition ELISA on coated BTN3A1-His, competitor murine 103.2. As to the method: Chimeric (VH0/Vκ0) and irrelevant human IgG4 (S241P, L248E) were tested on each plate for comparison.
BTN3A1 was diluted in 1×PBS to 0.5 μg/ml and 100 μL/well was coated overnight at 4° C. on a 96-well ELISA plate. The following day, the plate was washed 3× with 1×PBS/0.05% Tween (PBS-T) and blocked with 200 μL of 2% milk/PBS for 1 hour at room temperature. […] After washing the Nunc ELISA plate 3× with PBS-T, 100 μL of murine/test antibody mix was added to the ELISA plate. After one hour incubation at room temperature, the plate was washed 3 times with PBS-T and 100 μL of anti-mouse Fc HRP-labelled secondary antibody (Sigma, Dorset, UK) diluted 1:1000 in blocking buffer was applied for 1 hour at room temperature to detect bound murine antibody. The plate was washed 3 times with PBS-T following which 100 μL of TMB substrate was added and incubated for five minutes at room temperature. The reaction was stopped with 100 μl of 3.0 M hydrochloric acid and absorbance was read immediately using a Dynex plate reader at 450 nm.
On the technique in general: An ELISA detects its analyte on a solid surface through an enzyme-linked reagent.

Experiment [11] shares this target. Put plainly: SPR Biacore T200, multi-cycle kinetics, antibody captured on Protein A, BTN3A1-His as analyte, 1:1 model. As to the method: Purified antibodies were diluted to a concentration of 2 μg/mL in 2% BSA/PBS. At the start of each cycle, each antibody was captured on the Protein A at a density (RL) of 146.5 RU (theoretical value to obtain an RMax of ˜50 RU). Following capture, the surface was allowed to stabilize before injection of the BTN3A1 antigen (Sino Biological cat. no. 15973-H08H). BTN3A1 was titrated in 0.1% BSA/HBS-P+(running buffer) in a two-fold dilution range from 12 to 0.375 nM. The association phase was monitored for 360 seconds and the dissociation phase for 45 minutes (2700 seconds). Kinetic data was obtained using a flow rate of 40 μL/min to minimize any potential mass transfer effects. Regeneration of the Protein A surface was conducted using two injections of 10 mM glycine-HCL pH 1.5 at the end of each cycle. Two blanks (no BTN3A1) and a repeat of a single concentration of the analyte were performed for each tested antibody to check the stability of the surface and analyte over the kinetic cycles. The chimeric antibody was run twice. The signal from the reference channel Fc1 was subtracted from that of Fc2, Fc3 and Fc4 to correct for differences in non-specific binding to a reference surface. Additionally, blank runs were subtracted for each Fc to correct any antigen-independent signal variation, such as drift. […]

Where only a bound is given, the exact number is not on record here.

T1 sequence (O00481 30-254 limits assumed): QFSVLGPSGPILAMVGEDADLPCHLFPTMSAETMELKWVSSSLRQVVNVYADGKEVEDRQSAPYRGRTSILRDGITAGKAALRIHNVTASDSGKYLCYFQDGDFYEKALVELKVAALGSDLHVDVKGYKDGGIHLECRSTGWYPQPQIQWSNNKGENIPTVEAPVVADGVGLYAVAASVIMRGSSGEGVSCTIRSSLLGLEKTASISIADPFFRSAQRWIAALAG

B1: Chimeric 103.2 antibody (VH0/Vκ0), full-length IgG (antibody, V domains shown)
VH: QVQMQQSGAEVVRPGTSVKVSCKASGYAFTSYLIHWIKQRPGQGLEWIGVINPRSGDSHYNEKFKDRTTLTADQSSSTAYMQLSSLTSDDSAVYFCARSDYGAYWGQGTLVTVSS
VL: DIVLTQSPVTLSVTPGDSVSLSCRASQSISNNLHWYRQKSHESPRLLIKYASQSIFGIPSRFSGSGSGTEFTLSINSVETEDFGIYFCQQSNSWPHTFGTGTKLELK
B1: in experiment [1], the % CD107+ of Vγ9Vδ2 T cells, co-culture with Daudi cells, antibody at 10 µg/mL came to 6.96%.

B2: Chimeric 103.2 Fab fragment (Fab, V domains shown)
VH: B1 VH
VL: B1 VL
In general, Kd refers to a measure of binding affinity in units of concentration. A lower Kd goes with tighter binding. By koff is commonly meant a measure of how fast the partners let go of each other. A lower koff goes with slow dissociation. As a reminder, the kon is the rate constant with which the complex forms. Read a high kon as faster complex formation. In experiment [2], B2 registered a Kd of 1.42 nM, a koff of 0.000782 s⁻¹ and an on-rate (kon) of 551000 M⁻¹ s⁻¹. Also, the % CD107+ of Vγ9Vδ2 T cells, co-culture with Daudi cells, fragment at 10 µg/mL in experiment [1] was found to be 66.7%.

B3: Humanized 103.2 (hu103.2) full-length antibody: 103.2 VH4/Vκ4 IgG1 L247F L248E P350S dK (antibody, V domains shown)
VH: QVQMQQSGAEVKKPGASVKVSCKASGYAFTSYLIHWIKQRPGQGLEWIGVINPRSGDSHYNEKFKDRVTMTADQSISTAYMELSRLRSDDTAVYYCARSDYGAYWGQGTLVTVSS
VL: EIVLTQSPATLSVSPGERATLSCRASQSISNNLHWYQQKPGQAPRLLIKYASQSAFGIPARFSGSGSGTEFTLTISSLQSEDFAVYFCQQSNSWPHTFGQGTKLEIK
notes: also called hu103.2 (IgG)
In turn, B3 gave a kon in experiment [3] of 430000 M⁻¹ s⁻¹. In addition, in [4], the koff was found to be 0.000352 s⁻¹. The “ka 2” value in experiment [5] turned out to be 9.28 M⁻¹ s⁻¹. For the same molecule, the “kd 2” value in [6] turned out to be 17.6 s⁻¹. In experiment [7], binding was put at a Kd of 1.44 nM, the koff was determined as 0.00028 s⁻¹ and the kon was 194000 M⁻¹ s⁻¹. In experiment [1], the % CD25+ of Vγ9Vδ2 T cells within PBMCs, 67 nM, 5 days amounted to 7.9% and the % CTV dilution of Vγ9Vδ2 T cells within PBMCs, 67 nM, 5 days was 9.5%.

B4: Humanized 103.2 (hu103.2) Fab fragment (Fab, V domains shown)
VH: B3 VH
VL: B3 VL
B4: in [8], the Kd came out at 2.43 nM, the koff was 0.000419 s⁻¹ and the kon was determined as 172000 M⁻¹ s⁻¹. Also, in [9], the Kd is 1.26 nM, the koff came to 0.00138 s⁻¹ and the kon was 1.1e+06 M⁻¹ s⁻¹. In experiment [1], this molecule displayed a % CD25+ of Vγ9Vδ2 T cells within PBMCs, 67 nM, 5 days of 32.7%; a % CTV dilution of Vγ9Vδ2 T cells within PBMCs, 67 nM, 5 days of 45.3%; an EC50 (nM) in Vγ9Vδ2 T cell degranulation assay (CD107) against Daudi of 0.91 nM; an EC50 (nM) in Vγ9Vδ2 T cell degranulation assay (CD107) against SKOV-3 of 0.08 nM.

B5: 103.2 humanized variant VH4/Vκ4 (IgG4 format of the humanization screen) (antibody, V domains shown)
VH: B3 VH
VL: B3 VL
notes: It has the same variable regions as hu103.2, which is the later IgG1 Fc-silent construct
For B5, in experiment [10], the “IC50 relative to chimeric” value is ≤ 2 fold of chimeric (VH0/Vκ0). Moreover, the “affinity (KD) relative to chimeric” value in experiment [11] was ≤ 2 fold of 103.2 chimeric (VH0/Vκ0).
